In patent US20100260668A1 (published 2010):
Blank lines part the entries; values can stand above or below the binder they belong to.

Target: T1, VEGF (UniProt P15692-4 27-191)
T1 construct: Bought reagent; also called vascular endothelial growth factor
Experiment: SPR (Biacore), DVD-Ig captured, VEGF in solution

T1 sequence (P15692 other isoform, or with tags, fused parts or gaps limits assumed): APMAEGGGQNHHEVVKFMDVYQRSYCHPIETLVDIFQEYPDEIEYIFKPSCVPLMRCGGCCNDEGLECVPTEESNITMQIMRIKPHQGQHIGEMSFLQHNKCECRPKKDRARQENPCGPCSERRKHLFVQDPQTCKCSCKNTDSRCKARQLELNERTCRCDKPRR

B1: DVD465 (bispecific antibody, human IgG1, kappa)
heavy: not shown
light: DIQMTQSPSSLSASVGDRVTITCRASQDVSTAVAWYQQKPGKAPKLLIYSASFLYSGVPSRFSGSGSGTDFTLTISSLQPEDFATTYYCQQSYTGTVTFGQGTKVEIKRTVAAPDIQMTQSPSSLSASVGDRVTITCRASQDVSTAVAWYQQKPGKAPKLLIYSASFLYSGVPSRFSGSGSGTDFTLTISSLQPEDFATYYCQQSYTTPPTFGQGTKVEIKRTVAAPSVFIFPPSDEQLKSGTASVVCLLNNFYPREAKVQWKVDNALQSGNSQESVTEQDSKDSTYSLSSTLTLSKADYEKHKVYACEVTHQGLSSPVTKSFNRGEC
notes: DVD-Ig; N-term; VD AB015 (DLL4), C-term; VD AB070 (VEGF); HC linker short, LC linker short; also called DVD465H; DVD465L
Kd: 1.19 nM
koff: 0.000414 s⁻¹
kon: 348000 M⁻¹ s⁻¹

B2: DVD477 (bispecific antibody, human IgG1, kappa, L234A L235A)
heavy: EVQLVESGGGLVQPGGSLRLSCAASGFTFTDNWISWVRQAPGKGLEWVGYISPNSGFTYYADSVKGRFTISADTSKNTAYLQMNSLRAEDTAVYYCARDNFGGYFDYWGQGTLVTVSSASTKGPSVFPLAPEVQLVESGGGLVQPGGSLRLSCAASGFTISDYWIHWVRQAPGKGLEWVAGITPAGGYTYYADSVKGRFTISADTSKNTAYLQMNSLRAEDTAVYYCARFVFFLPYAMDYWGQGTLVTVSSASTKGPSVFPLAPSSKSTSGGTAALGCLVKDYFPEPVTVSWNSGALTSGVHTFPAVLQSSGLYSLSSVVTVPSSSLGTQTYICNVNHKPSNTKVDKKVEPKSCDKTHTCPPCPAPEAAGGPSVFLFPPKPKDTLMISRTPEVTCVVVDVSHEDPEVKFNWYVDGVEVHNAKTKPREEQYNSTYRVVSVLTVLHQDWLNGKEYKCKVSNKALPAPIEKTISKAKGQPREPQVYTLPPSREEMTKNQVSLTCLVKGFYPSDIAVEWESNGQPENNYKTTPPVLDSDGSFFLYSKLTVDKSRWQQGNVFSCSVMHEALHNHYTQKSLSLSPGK
light: B1 light
notes: DVD-Ig; N-term; VD AB015 (DLL4), C-term; VD AB070 (VEGF); HC linker long, LC linker short; also called DVD477H; DVD477L
Kd: 1.02 nM
koff: 0.000254 s⁻¹
kon: 249000 M⁻¹ s⁻¹

B3: DVD443 (bispecific antibody, human IgG1, kappa)
heavy: not shown
light: DIVMTQSPDSLAVSLGERATISCRASESVDNYGISFMKWFQQKPGQPPKLLIYAASNQGSGVPDRFSGSGSGTDFTLTISSLQAEDVAVYYCQQSKEVPWTFGGGTKVEIKRTVAAPDIQMTQSPSSLSASVGDRVTITCRASQDVSTAVAWYQQKPGKAPKLLIYSASFLYSGVPSRFSGSGSGTDFTLTISSLQPEDFATYYCQQSYTTPPTFGQGTKVEIKRTVAAPSVFIFPPSDEQLKSGTASVVCLLNNFYPREAKVQWKVDNALQSGNSQESVTEQDSKDSTYSLSSTLTLSKADYEKHKVYACEVTHQGLSSPVTKSFNRGEC
notes: DVD-Ig; N-term; VD AB069 (DLL4), C-term; VD AB070 (VEGF); HC linker short, LC linker short; also called DVD443H; DVD443L
Kd: 1.71 nM
koff: 0.000267 s⁻¹
kon: 157000 M⁻¹ s⁻¹

B4: DVD455 (bispecific antibody, human IgG1, kappa)
heavy: not shown
light: B3 light
notes: DVD-Ig; N-term; VD AB069 (DLL4), C-term; VD AB070 (VEGF); HC linker long, LC linker short; also called DVD455H; DVD455L
Kd: 0.46 nM
koff: 8.15e-05 s⁻¹
kon: 177000 M⁻¹ s⁻¹

B7: DVD449 (bispecific antibody, human IgG1, kappa)
heavy: not shown
light: DIVMTQSPDSLAVSLGERATISCRASESVDNYGISFMKWFQQKPGQPPKLLIYAASNQGSGVPDRFSGSGSGTDFTLTISSLQAEDVAVYYCQQSKEVPWTFGGGTKVEIKRTVAAPSVFIFPPDIQMTQSPSSLSASVGDRVTITCRASQDVSTAVAWYQQKPGKAPKLLIYSASFLYSGVPSRFSGSGSGTDFTLTISSLQPEDFATYYCQQSYTTPPTFGQGTKVEIKRTVAAPSVFIFPPSDEQLKSGTASVVCLLNNFYPREAKVQWKVDNALQSGNSQESVTEQDSKDSTYSLSSTLTLSKADYEKHKVYACEVTHQGLSSPVTKSFNRGEC
notes: DVD-Ig; N-term; VD AB069 (DLL4), C-term; VD AB070 (VEGF); HC linker long, LC linker long; also called DVD449H; DVD449L
Kd: 0.903 nM
koff: 0.000208 s⁻¹
kon: 230000 M⁻¹ s⁻¹

B8: DVD461 (bispecific antibody, human IgG1, kappa)
heavy: not shown
light: B7 light
notes: DVD-Ig; N-term; VD AB069 (DLL4), C-term; VD AB070 (VEGF); HC linker short, LC linker long; also called DVD461H; DVD461L
Kd: 0.75 nM
koff: 0.000202 s⁻¹
kon: 269000 M⁻¹ s⁻¹

B10: DVD471 (bispecific antibody, human IgG1, kappa, L234A L235A)
heavy: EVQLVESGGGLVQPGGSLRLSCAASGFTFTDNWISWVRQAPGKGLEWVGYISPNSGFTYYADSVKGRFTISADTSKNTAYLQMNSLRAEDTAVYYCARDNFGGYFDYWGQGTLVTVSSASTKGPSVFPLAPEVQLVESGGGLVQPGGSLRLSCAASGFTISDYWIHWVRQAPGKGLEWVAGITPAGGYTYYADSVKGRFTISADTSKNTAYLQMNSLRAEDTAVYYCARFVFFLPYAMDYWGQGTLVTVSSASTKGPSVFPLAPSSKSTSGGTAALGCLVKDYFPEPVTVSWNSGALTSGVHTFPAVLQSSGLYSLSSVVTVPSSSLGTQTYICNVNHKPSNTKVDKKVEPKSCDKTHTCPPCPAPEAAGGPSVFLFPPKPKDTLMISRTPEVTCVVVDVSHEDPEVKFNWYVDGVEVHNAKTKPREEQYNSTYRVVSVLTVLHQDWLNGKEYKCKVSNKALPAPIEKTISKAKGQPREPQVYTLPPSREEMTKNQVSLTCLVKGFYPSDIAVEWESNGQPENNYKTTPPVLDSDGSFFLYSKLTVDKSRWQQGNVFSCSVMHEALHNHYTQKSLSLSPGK
light: DIQMTQSPSSLSASVGDRVTITCRASQDVSTAVAWYQQKPGKAPKLLIYSASFLYSGVPSRFSGSGSGTDFTLTISSLQPEDFATTYYCQQSYTGTVTFGQGTKVEIKRTVAAPSVFIFPPDIQMTQSPSSLSASVGDRVTITCRASQDVSTAVAWYQQKPGKAPKLLIYSASFLYSGVPSRFSGSGSGTDFTLTISSLQPEDFATYYCQQSYTTPPTFGQGTKVEIKRTVAAPSVFIFPPSDEQLKSGTASVVCLLNNFYPREAKVQWKVDNALQSGNSQESVTEQDSKDSTYSLSSTLTLSKADYEKHKVYACEVTHQGLSSPVTKSFNRGEC
notes: DVD-Ig; N-term; VD AB015 (DLL4), C-term; VD AB070 (VEGF); HC linker long, LC linker long; also called DVD471H; DVD471L
Kd: 0.917 nM
koff: 0.000232 s⁻¹
kon: 253000 M⁻¹ s⁻¹

B11: DVD483 (bispecific antibody, human IgG1, kappa)
heavy: not shown
light: B10 light
notes: DVD-Ig; N-term; VD AB015 (DLL4), C-term; VD AB070 (VEGF); HC linker short, LC linker long; also called DVD483H; DVD483L
Kd: 0.963 nM
koff: 0.000872 s⁻¹
kon: 905000 M⁻¹ s⁻¹

B14: DVD513 (bispecific antibody, human IgG1, kappa)
heavy: not shown
light: QAVVTQESALTTSPGETVTLTCRSSTGAVTTSNYANWVQEKPDHLFTGLIGGTNNRAPGVPARFSGSLIGDKAALTITGAQTEDEAIYFCALWYSNHWVFGGGTKLTVLGQPKAAPDIQMTQSPSSLSASVGDRVTITCRASQDVSTAVAWYQQKPGKAPKLLIYSASFLYSGVPSRFSGSGSGTDFTLTISSLQPEDFATYYCQQSYTTPPTFGQGTKVEIKRTVAAPSVFIFPPSDEQLKSGTASVVCLLNNFYPREAKVQWKVDNALQSGNSQESVTEQDSKDSTYSLSSTLTLSKADYEKHKVYACEVTHQGLSSPVTKSFNRGEC
notes: DVD-Ig; N-term; VD AB073 (DLL4), C-term; VD AB070 (VEGF); HC linker short, LC linker short; also called DVD513H; DVD513L
Kd: 1.24 nM
koff: 0.000497 s⁻¹
kon: 400000 M⁻¹ s⁻¹

Continued by falling Kd, values first:

Kd: 0.449 nM
koff: 0.000168 s⁻¹
kon: 374000 M⁻¹ s⁻¹
B15: DVD534 (bispecific antibody, human IgG1, kappa, lambda, L234A L235A)
heavy: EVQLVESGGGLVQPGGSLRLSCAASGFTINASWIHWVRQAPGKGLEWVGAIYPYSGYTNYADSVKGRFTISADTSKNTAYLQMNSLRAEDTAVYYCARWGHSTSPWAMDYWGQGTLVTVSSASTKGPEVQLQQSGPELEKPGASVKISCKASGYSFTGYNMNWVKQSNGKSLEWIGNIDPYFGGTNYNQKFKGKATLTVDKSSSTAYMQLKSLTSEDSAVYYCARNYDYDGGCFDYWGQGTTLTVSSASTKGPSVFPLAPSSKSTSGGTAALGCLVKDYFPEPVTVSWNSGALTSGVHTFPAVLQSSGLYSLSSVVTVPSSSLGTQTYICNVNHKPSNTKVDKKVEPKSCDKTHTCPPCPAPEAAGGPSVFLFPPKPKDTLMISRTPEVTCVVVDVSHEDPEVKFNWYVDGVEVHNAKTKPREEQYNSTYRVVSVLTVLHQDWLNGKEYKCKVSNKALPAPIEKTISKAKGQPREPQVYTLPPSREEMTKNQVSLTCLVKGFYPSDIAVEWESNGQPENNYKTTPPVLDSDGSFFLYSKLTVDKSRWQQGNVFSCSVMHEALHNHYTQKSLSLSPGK
light: DIQMTQSPSSLSASVGDRVTITCRASQVIRRSLAWYQQKPGKAPKLLIYAASNLASGVPSRFSGSGSGTDFTLTISSLQPEDFATYYCQQSNTSPLTFGQGTKVEIKRTVAAPSVFIFPPQAVVTQESALTTSPGETVTLTCRSSTGAVTTSNYANWVQEKPDHLFTGLIGGTNNRAPGVPARFSGSLIGDKAALTITGAQTEDEAIYFCALWYSNHWVFGGGTKLTVLGQPKAAPSVTLFPPSSEELQANKATLVCLISDFYPGAVTVAWKADSSPVKAGVETTTPSKQSNNKYAASSYLSLTPEQWKSHRSYSCQVTHEGSTVEKTVAPTECS
notes: DVD-Ig; N-term; VD AB071 (VEGF), C-term; VD AB073 (DLL4); HC linker short, LC linker long; also called DVD534H; DVD534L

Kd: 0.413 nM
koff: 0.00016 s⁻¹
kon: 388000 M⁻¹ s⁻¹
B9: DVD528 (bispecific antibody, human IgG1, lambda)
heavy: not shown
light: DIQMTQSPSSLSASVGDRVTITCRASQVIRRSLAWYQQKPGKAPKLLIYAASNLASGVPSRFSGSGSGTDFTLTISSLQPEDFATYYCQQSNTSPLTFGQGTKVEIKRTVAAPQAVVTQESALTTSPGETVTLTCRSSTGAVTTSNYANWVQEKPDHLFTGLIGGTNNRAPGVPARFSGSLIGDKAALTITGAQTEDEAIYFCALWYSNHWVFGGGTKLTVLGQPKAAPSVTLFPPSSEELQANKATLVCLISDFYPGAVTVAWKADSSPVKAGVETTTPSKQSNNKYAASSYLSLTPEQWKSHRSYSCQVTHEGSTVEKTVAPTECS
notes: DVD-Ig; N-term; VD AB071 (VEGF), C-term; VD AB073 (DLL4); HC linker long, LC linker short; also called DVD528H; DVD528L

Kd: 0.176 nM
koff: 2.85e-05 s⁻¹
kon: 162000 M⁻¹ s⁻¹
B12: DVD498 (bispecific antibody, human IgG1, kappa)
heavy: not shown
light: DIQMTQSPSSLSASVGDRVTITCRASQVIRRSLAWYQQKPGKAPKLLIYAASNLASGVPSRFSGSGSGTDFTLTISSLQPEDFATYYCQQSNTSPLTFGQGTKVEIKRTVAAPSVFIFPPDIQMTQSSSYLSVSLGGRVTITCKASDHINNWLAWYQQKPGNAPRLLISGATSLETGVPSRFSGSGSGKDYTLSITSLQTEDVATYYCQQYWSIPLTFGAGTKLELKRTVAAPSVFIFPPSDEQLKSGTASVVCLLNNFYPREAKVQWKVDNALQSGNSQESVTEQDSKDSTYSLSSTLTLSKADYEKHKVYACEVTHQGLSSPVTKSFNRGEC
notes: DVD-Ig; N-term; VD AB071 (VEGF), C-term; VD AB072 (DLL4); HC linker long, LC linker long; also called DVD498H; DVD498L

Kd: 0.0733 nM
koff: 1.2e-05 s⁻¹
kon: 164000 M⁻¹ s⁻¹
B13: DVD510 (bispecific antibody, human IgG1, kappa)
heavy: not shown
light: B12 light
notes: DVD-Ig; N-term; VD AB071 (VEGF), C-term; VD AB072 (DLL4); HC linker short, LC linker long; also called DVD510H; DVD510L

Kd: 0.0499 nM
koff: 7.6e-06 s⁻¹
kon: 152000 M⁻¹ s⁻¹
B5: DVD492 (bispecific antibody, human IgG1, kappa)
heavy: not shown
light: DIQMTQSPSSLSASVGDRVTITCRASQVIRRSLAWYQQKPGKAPKLLIYAASNLASGVPSRFSGSGSGTDFTLTISSLQPEDFATYYCQQSNTSPLTFGQGTKVEIKRTVAAPDIQMTQSSSYLSVSLGGRVTITCKASDHINNWLAWYQQKPGNAPRLLISGATSLETGVPSRFSGSGSGKDYTLSITSLQTEDVATYYCQQYWSIPLTFGAGTKLELKRTVAAPSVFIFPPSDEQLKSGTASVVCLLNNFYPREAKVQWKVDNALQSGNSQESVTEQDSKDSTYSLSSTLTLSKADYEKHKVYACEVTHQGLSSPVTKSFNRGEC
notes: DVD-Ig; N-term; VD AB071 (VEGF), C-term; VD AB072 (DLL4); HC linker short, LC linker short; also called DVD492H; DVD492L

Kd: 0.000941 nM
koff: 1.52e-07 s⁻¹
kon: 162000 M⁻¹ s⁻¹
B6: DVD504 (bispecific antibody, human IgG1, kappa)
heavy: not shown
light: B5 light
notes: DVD-Ig; N-term; VD AB071 (VEGF), C-term; VD AB072 (DLL4); HC linker long, LC linker short; also called DVD504H; DVD504L
